A word on the Kd: it is the concentration at which binding is half-saturated.

From patent publication US20090269277A1 come the findings set out here.

Assay [1] concerns the target CEA (UniProt P06731). Description: SE-HPLC of 125I-TF2 mixed with a 20-fold molar excess of CEA.
The target of assay [2] is recombinant human RIIalpha (commercial sample) (human) (UniProt P13861). Nature of the assay: equilibrium SE-HPLC.
Chain of recombinant human RIIalpha (commercial sample) (human) (P13861 whole entry): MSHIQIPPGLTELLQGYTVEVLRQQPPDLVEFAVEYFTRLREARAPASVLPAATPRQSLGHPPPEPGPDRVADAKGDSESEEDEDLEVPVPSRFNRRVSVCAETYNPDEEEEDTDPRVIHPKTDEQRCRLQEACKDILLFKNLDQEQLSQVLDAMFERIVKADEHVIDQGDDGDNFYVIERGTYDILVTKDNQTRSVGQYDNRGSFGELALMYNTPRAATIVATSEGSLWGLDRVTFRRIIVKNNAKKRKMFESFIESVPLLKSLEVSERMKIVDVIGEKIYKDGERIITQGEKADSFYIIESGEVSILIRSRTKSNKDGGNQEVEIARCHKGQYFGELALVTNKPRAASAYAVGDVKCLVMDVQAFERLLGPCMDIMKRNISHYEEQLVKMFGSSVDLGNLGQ

Chain of CEA (P06731 35-685 limits assumed): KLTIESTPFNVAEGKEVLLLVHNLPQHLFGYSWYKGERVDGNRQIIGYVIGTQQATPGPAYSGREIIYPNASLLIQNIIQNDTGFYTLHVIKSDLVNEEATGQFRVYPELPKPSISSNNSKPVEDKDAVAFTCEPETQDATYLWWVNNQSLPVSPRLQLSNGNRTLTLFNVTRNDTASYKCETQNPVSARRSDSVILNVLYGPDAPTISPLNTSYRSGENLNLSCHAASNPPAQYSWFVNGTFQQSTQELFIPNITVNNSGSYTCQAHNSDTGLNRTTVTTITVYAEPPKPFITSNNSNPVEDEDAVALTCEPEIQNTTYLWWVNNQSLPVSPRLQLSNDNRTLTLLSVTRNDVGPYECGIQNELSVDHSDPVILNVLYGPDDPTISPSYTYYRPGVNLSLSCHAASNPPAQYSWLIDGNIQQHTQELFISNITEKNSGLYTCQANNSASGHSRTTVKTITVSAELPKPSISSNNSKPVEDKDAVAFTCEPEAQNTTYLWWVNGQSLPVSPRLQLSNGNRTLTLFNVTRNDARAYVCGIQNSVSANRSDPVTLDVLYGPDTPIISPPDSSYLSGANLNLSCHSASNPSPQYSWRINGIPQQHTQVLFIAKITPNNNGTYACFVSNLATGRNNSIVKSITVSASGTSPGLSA

Consider TF2 (bispecific antibody), for which, in assay [1], the percent of labeled TF2 shifted to a high molecular weight species amounted to 95%.

B1: h679-Fab-AD1 (Fab, part only; not given: h679 Fd and light chain, part only)
heavy, part: PKSCGGGGSGGGGSGGGGSQIEYLAKQIVDNAIQQA
In the case of B1, the Kd in assay [2] was found to be 30 nM.
